Results reported in publication PMC10022743.

B1: HA–YKT6-WT (full-length, siRNA-resistant) [human] / SNAP29 [human (endogenous in HEK293T)] (parent)
chain 1: MKLYSLSVLYKGEAKVVLLKAAYDVSSFSFFQRSSVQEFMTFTSQLIVERSSKGTRASVKEQDYLCHVYVRNDSLAGVVIADNEYPSRVAFTLLEKVLDEFSKQVDRIDWPVGSPATIHYPALDGHLSRYQNPREADPMTKVQAELDETKIILHNTMESLLERGEKLDDLVSKSEVLGTQSKAFYKTARKQNSCCAIM
chain 2: MSAYPKSYNPFDDDGEDEGARPAPWRDARDLPDGPDAPADRQQYLRQEVLRRAEATAASTSRSLALMYESEKVGVASSEELARQRGVLERTEKMVDKMDQDLKISQKHINSIKSVFGGLVNYFKSKPVETPPEQNGTLTSQPNNRLKEAISTSKEQEAKYQASHPNLRKLDDTDPVPRGAGSAMSTDAYPKNPHLRAYHQKIDSNLDELSMGLGRLKDIALGMQTEIEEQDDILDRLTTKVDKLDVNIKSTERKVRQL

Variants of: B1
Assay: immunoprecipitation followed by mass spectrometry
Conditions: with SNAP29 [human (endogenous in HEK293T)], 2 h EBSS and 300 nM Torin 1, read off a plot
[1] = YKT6 siRNA-treated HEK293T WT cells

For chain 1 MKLYSLSVLYKGEAKVVLLKAAYDVSSFSFFQRSSVQEFMTFTSQLIVERSSKGTRASVKEQDYLCHVYVRNDSLAGVVIADNEYPSRVAFTLLEKVLDEFSKQVDRIDWPVGSPATIHYPALDGHLSRYQNPREADPMTKVQAELDETKIILHNEMESLLERGEKLDDLVSKSEVLGTQSKAFYKTARKQNSCCAIM [chain 1 T156E], which screen value (HEK293T WT cells) is on record?
Its screen value is -2.3 log2.

And the screen value [1]?
Its screen value is -2.3 log2.

How did the screen value (HEK293T WT cells) turn out when chain 1 MKLYSLSVLYKGEAKVVLLKAAYDVSSFSFFQRSSVQEFMTFTSQLIVERSSKGTRASVKEQDYLCHVYVRNDSLAGVVIADNEYPSRVAFTLLEKVLDEFSKQVDRIDWPVGSPATIHYPALDGHLSRYQNPREADPMTKVQAELDETKIILHNAMESLLERGEKLDDLVSKSEVLGTQSKAFYKTARKQNSCCAIM [chain 1 T156A] was run?
The screen value was 2 log2.

What about the screen value [1] of the same variant?
The screen value was 2 log2.
